US20210284734A1 (SYMPHOGEN A S, published 2021)
Read-outs that look alike come from different tables or passages of the source. One block for each binder: values may come before it.

How the values were obtained:
[1] = target: T1, R-PE labeled human PD-L1-Fc chimera protein (human, UniProt Q9NZQ7 19-239, conjugated to R-phycoerythrin (R-PE)); assay: flow cytometry, PD-1-transfected CHO-S cells; R-PE PD-L1-Fc 16.4 nM in the presence of the negative control ramucirumab 10 ug/ml
T1 construct: bought from R&D Systems; not shown: Fc of the commercial chimera
T1 sequence (Q9NZQ7 19-239, change not shown): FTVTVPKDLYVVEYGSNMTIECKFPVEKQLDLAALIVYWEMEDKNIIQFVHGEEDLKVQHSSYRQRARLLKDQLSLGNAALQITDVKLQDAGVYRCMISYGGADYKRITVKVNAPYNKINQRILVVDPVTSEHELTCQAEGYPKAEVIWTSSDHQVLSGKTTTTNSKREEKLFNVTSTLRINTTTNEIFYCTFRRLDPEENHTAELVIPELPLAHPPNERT

[2] = target: T2, His-tagged human PD-1 ECD (human, UniProt Q15116 25-170); assay: SPR, IgG captured, monovalent PD-1 ECD analyte
T2 construct: bought from Acro Biosystems; not shown: His tag
T2 sequence (Q15116 25-170): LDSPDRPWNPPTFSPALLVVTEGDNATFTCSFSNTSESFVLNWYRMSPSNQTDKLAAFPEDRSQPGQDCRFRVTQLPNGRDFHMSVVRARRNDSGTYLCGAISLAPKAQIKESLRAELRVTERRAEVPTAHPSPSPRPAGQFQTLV

[3] = target: T3, His-tagged cynomolgus PD-1 ECD (cynomolgus (Macaca fascicularis), UniProt Q15116 25-170 (human entry)); assay: SPR, IgG captured, monovalent PD-1 ECD analyte
T3 construct: bought from Acro Biosystems; not shown: His tag
T3 chain: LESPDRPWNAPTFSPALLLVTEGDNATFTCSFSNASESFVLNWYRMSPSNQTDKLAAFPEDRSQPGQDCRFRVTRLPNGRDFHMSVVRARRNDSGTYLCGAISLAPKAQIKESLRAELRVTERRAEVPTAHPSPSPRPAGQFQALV

[4] = target: T2, His-tagged human PD-1 ECD; assay: SPR, IgG captured, monovalent PD-1 ECD analyte; remark: listed apart in the source
Procedure: (§1) The lowest possible anti-PD-1 antibody density was applied to prevent non-specific binding and mass transport limitation. For measuring antibody kinetics, anti-PD-1 antibodies were adjusted to a concentration of 1.0 μg/ml and captured on anti-human IgG Fc surfaces generated by immobilizing approximately 1000 RU of a monoclonal anti-human Fc antibody (Biacore, Denmark). […] The recorded binding responses were fitted to a simple Langmuir 1:1 binding model for calculation of the on-rate (kₒₙ or ka), off-rate (koff or kd) and affinity (KD) constants using double referencing.
(§2) His-tagged mouse and rat PD-1 ECD were purchased from Sino Biologicals.

[5] = target: T4, His-tagged mouse PD-1 ECD (mouse (Mus musculus), UniProt Q02242 25-169); assay: SPR, IgG captured, monovalent PD-1 ECD analyte
T4 construct: bought from Sino Biologicals; not shown: His tag
T4 sequence: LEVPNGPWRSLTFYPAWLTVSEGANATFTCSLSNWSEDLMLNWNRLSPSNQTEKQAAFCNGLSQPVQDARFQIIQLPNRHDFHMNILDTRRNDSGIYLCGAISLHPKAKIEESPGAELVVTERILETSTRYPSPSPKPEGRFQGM

[6] = target: T4, His-tagged mouse PD-1 ECD; assay: SPR, IgG captured, monovalent PD-1 ECD analyte; remark: listed apart in the source
Procedure: as §1, §2

binding result [1]: binds
B1: cyno PD1 (receptor)
receptor: LESPDRPWNAPTFSPALLLVTEGDNATFTCSFSNASESFVLNWYRMSPSNQTDKLAAFPEDRSQPGQDCRFRVTRLPNGRDFHMSVVRARRNDSGTYLCGAISLAPKAQIKESLRAELRVTERRAEVPTAHPSPSPRPAGQFQALVVGVVGGLLGSLVLLVWVLAVICSRAAQGTIEARRTGQPLKEDPSAVPVFSVDYGELDFQWREKTPEPPAPCVPEQTEYATIVFPSGLGTSSPARRGSADGPRSPRPLRPEDGHCSWPL
notes: also called cynomolgus PD-1 expressed on CFSE-stained CHO-S cells

Kd [2]: 0.02 nM
koff [2]: 2.3e-05 s⁻¹
kon [2]: 1.1e+06 M⁻¹ s⁻¹
Kd [3]: 0.005 nM
koff [3]: 4.5e-06 s⁻¹
kon [3]: 970000 M⁻¹ s⁻¹
Kd [4]: 0.028 nM
koff [4]: 8.85e-06 s⁻¹
kon [4]: 326000 M⁻¹ s⁻¹
Kd [5]: 0.809 nM
koff [5]: 3.04e-05 s⁻¹
kon [5]: 37100 M⁻¹ s⁻¹
B2: 12819.15384 (antibody, human IgG1, lambda, L234A L235A)
heavy: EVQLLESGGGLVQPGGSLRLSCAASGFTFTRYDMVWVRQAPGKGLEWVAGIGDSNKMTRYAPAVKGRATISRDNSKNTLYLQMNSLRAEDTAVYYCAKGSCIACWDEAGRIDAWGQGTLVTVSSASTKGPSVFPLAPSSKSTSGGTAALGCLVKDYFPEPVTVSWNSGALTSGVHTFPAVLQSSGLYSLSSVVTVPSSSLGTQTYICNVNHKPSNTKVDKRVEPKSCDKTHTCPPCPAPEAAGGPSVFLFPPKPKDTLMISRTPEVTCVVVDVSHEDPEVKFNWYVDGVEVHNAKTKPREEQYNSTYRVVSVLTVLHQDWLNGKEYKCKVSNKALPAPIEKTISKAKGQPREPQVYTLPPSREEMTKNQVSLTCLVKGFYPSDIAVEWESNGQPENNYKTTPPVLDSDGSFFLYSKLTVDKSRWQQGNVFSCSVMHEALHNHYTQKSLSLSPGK
light: SYELTQDPAVSVALGQTVRITCSGGGSYDGSSYYGWYQQKPGQAPVTVIYNNNNRPSDIPDRFSGSSSGNTASLTITGAQAEDEADYYCGSYDRPETNSDYVGMFGSGTKVTVLGQPKANPTVTLFPPSSEELQANKATLVCLISDFYPGAVTVAWKADGSPVKAGVETTKPSKQSNNKYAASSYLSLTPEQWKSHRSYSCQVTHEGSTVEKTVAPTECS
notes: humanized, IgG1 LALA, lambda

binding result [6]: no binding
B3: 12865.17150 (antibody, human IgG1, lambda, L234A L235A, V domains shown)
VH: EVQLLESGGGLVQPGGSLRLSCAASGFDFSDHGMQWVRQAPGKGLEYVGVIDTTGRYTYYAPAVKGRATISRDNSKNTLYLQMNSLRAEDTAVYYCAKTTCVGGYLCNTVGSIDAWGQGTLVTVSS
VL: SYELTQDPAVSVALGQTVRITCSGGGSSSYYGWYQQKPGQAPVTVIYDDTNRPSGIPDRFSGSSSGNTASLTITGAQAEDEADYYCGGYEGSSHAGIFGSGTKVTVLG
